Where a chain is given by its changes, count along the chain named. Blank lines part the entries; values can stand above or below the binder they belong to.
How the values were obtained:
[1] = target: T1, hIL-4R alpha-ECD-Flag (human, UniProt P24394 26-232); experiment: SPR, Biacore T200, antibody captured on Protein-A chip, hIL-4R alpha-ECD-Flag as analyte
T1 construct: range 26-232; Analyte of the Biacore experiment
Description: The affinity of six purified humanized antibodies was detected by Biacore T200 (GE healthcare), with the reference antibody Dupilumab as a control. The specific experimental method was as follows: a Protein-A CMS sensor chip (GE healthcare) was used, with FC1 (Flow cell 1) as a reference channel, and FC2 (Flow cell 2) as a sample channel. Humanized antibodies or control antibody were captured in the FC2 channel, and then hIL-4R alpha-ECD-Flag at different concentrations was injected. Cycling conditions were as follows: an analyte was injected into all channels of FCs at 50 μl/min for 4 min, with a dissociation time of 20 min, and 6M guanidine hydrochloride (Sinopharm Chemical Reagent Co., Ltd.) was injected at a rate of 10 μl/min for 30 s for surface regeneration. Then, signal differences and affinity for interaction between captured antibodies and non-captured antibodies were calculated by Biacore T200 Evaluation Software Ver 1.0.

[2] = target: T2, human IL-4R alpha on cells (TF-1 cells; human peripheral blood mononuclear cells) (human, UniProt P24394 26-825); experiment: cell-based or functional assay
[3] = target: T2, human IL-4R alpha on cells (TF-1 cells; …); experiment: cell-based or functional assay; remark: listed apart in the source
[4] = target: T3, hIL-4R alpha-ECD-Fc (human, UniProt P24394 26-232); experiment: ELISA, plate coated with 1 ug/ml hIL-4R alpha-ECD-Fc
T3 construct: range 26-232; hFc at the C-terminus of the ECD; also called hIL4R alpha-ECD-hFc; hIL-4R alpha-Fc antigen
Description: The titer was tested by ELISA: an ELISA plate was coated with the hIL-4R alpha ECD-Fc antigen at a concentration of 1 μg/ml, 100 μl per well, and coated overnight at 4° C. The plates were washed twice with PBST (PBS containing 0.5% Tween-20) and then pat-dried. Each well was blocked with 200 μl of coating solution containing 1% BSA, blocked at room temperature for 4 h, pat-dried, and stored in a refrigerator at −20° C. for later use. During testing, 100 μl of mouse serum at different concentrations was added to each well of the ELISA plate, with two replicate wells, for incubation at room temperature for 1.5 h. The wells were washed with PBST for 3 times and then pat-dried. Then 100 μl of rabbit anti-mouse IgG labeled with HRP diluted with PBST by 1:10000 (purchased from Sigma) was added and the plates were incubated at room temperature for 1 h. The wells were washed with PBST for 3 times and then pat-dried. Then 100 μl of chromogenic solution was added to each well (an ELISA chromogenic solution A was mixed with a chromogenic solution B at a volume ratio of 1:1 before use) for a chromogenic reaction, and then 100 μl of 2M H2SO4 stopping solution was added to each well to terminate the reaction. The OD value of each well was immediately measured at 450 nm with a microplate reader (Molecular Device).
Optimized murine anti-hIL-4R alpha monoclonal antibodies were purified by a ProteinG affinity chromatography column and quantified by BCA. The EC50 of anti-hIL-4R alpha monoclonal antibodies binding to hIL-4R alpha was tested by ELISA. The testing method is as described in Example 3. An ELISA plate was coated with 1 μg/ml of hIL-4R alpha-ECD-Fc antigen, and then murine anti-hIL-4R alpha monoclonal antibodies at different concentrations were added for testing.

B2: humanized anti-hIL-4R alpha monoclonal antibody 131-Hu (antibody, human IgG4 S228P, kappa, V domains shown)
VH: EVQLVESGGGLVQPGGSLRLSCAASGFTFSDYGMHWVRQAPGKGLEWVSYISSGSSTIYYADTVKGRFTISRDNAKNSLYLQMNSLRAEDTAVYYCARISTVVAKRYAMDYWGQGTLVTVSS
VL: DIQMTQSPSSLSASVGDRVTITCRASQDISNYLNWYQQKPGKAPKLLIYYTSRLHSGVPSRFSGSGSGTDFTLTISSLQPEDIATYYCQEVNMLPFTFGQGTKVEIKR
notes: Humanized, human IgG4 constant region; expressed in HEK293, purified on ProteinA
Kd [1]: 0.33 nM
koff [1]: 0.000111 s⁻¹
kon [1]: 335000 M⁻¹ s⁻¹
IC50 (ng/ml), inhibition of IL-4-induced TF-1 cell proliferation [2]: 90.6 ng/mL

B4: humanized anti-hIL-4R alpha monoclonal antibody 59-Hu (antibody, human IgG4 S228P, kappa, V domains shown)
VH: EVQLVESGGGLVQPGGSLRLSCAASGFTFSDYGIHWVRQAPGKGLEWVSYIRSDSSIIHYADTVKGRFTISRDNAKNSLYLQMNSLRAEDTAVYYCARGRDRGYFDYWGQGTLVTVSS
VL: EIVLTQSPATLSLSPGERATLSCSASSSVSYMYWYQQKPGQAPRPWIYLTSNLASGVPARFSGSGSGTDFTLTISSLEPEDFAVYYCQQWTSIPFTFGQGTKVEIKR
notes: as for B2
Kd [1]: 0.25 nM
koff [1]: 0.000284 s⁻¹
kon [1]: 1.14e+06 M⁻¹ s⁻¹
IC50 (ng/ml), inhibition of IL-4-induced TF-1 cell proliferation [2]: 296 ng/mL

B5: humanized anti-hIL-4R alpha monoclonal antibody 236-Hu (antibody, human IgG4 S228P, kappa, V domains shown)
VH: QVQLVQSGAEVKKPGASVKVSCKASGYTFTDYNVDWVRQAPGQGLEWIGTINPNNGGILSNQKFKGRVTITVDTSASTAYMELSSLRSEDTAVYYCGRGGLRRRGFMDYWGQGTLVTVSS
VL: B4 VL with S24R, S30I, M32I, Y33H, L49A, T50A, A54P, T91S, I93N, F95P
notes: as for B2
Kd [1]: 0.173 nM
koff [1]: 0.000255 s⁻¹
kon [1]: 1.48e+06 M⁻¹ s⁻¹
IC50 (ng/ml), inhibition of IL-4-induced TF-1 cell proliferation [2]: 54.6 ng/mL

B6: murine anti-hIL-4R alpha monoclonal antibody 57 (antibody, V domains shown)
VH: EVQLQQSGPELVKPGASVKIPCKASGYTFTDYNMDWVKQSHGKSLEWIGDINPNNGNILFNQKFKGKATLTVDKSSSTAYVELRSLTSEDTAVYYCGRGGLRRRGFMDYWGQGTSVTVSS
VL: QIVLSQSPAILSASPGEKVTMTCRASSSVSYMHWYQQKPGSSPKPWIYAASNLASGVPARFSGSGSGTSYSLTISRVEAEDAATYYCQQWSSNPPTFGGGTKLEIK
notes: Mouse hybridoma antibody purified on ProteinG
IC50 (ng/ml), inhibition of IL-4-induced TF-1 proliferation [3]: 23.6 ng/mL
EC50 [4]: 0.0079 µg/mL

B7: murine anti-hIL-4R alpha monoclonal antibody 75 (antibody, V domains shown)
VH: B6 VH
VL: B6 VL
notes: as for B6
IC50 (ng/ml), inhibition of IL-4-induced TF-1 proliferation [3]: 29 ng/mL
EC50 [4]: 0.0129 µg/mL

B8: murine anti-hIL-4R alpha monoclonal antibody 83 (antibody, V domains shown)
VH: B6 VH with H41R, D50T, N57D, I58T, L59M, F60Y, G66D, S77T, V81M, Q112R
VL: B6 VL with S30I, M32I, A50I, S71F, A79V, S92V
notes: as for B6
IC50 (ng/ml), inhibition of IL-4-induced TF-1 proliferation [3]: 36.6 ng/mL
EC50 [4]: 0.0123 µg/mL

Next, values leading:

Kd [1]: 0.526 nM
koff [1]: 0.00021 s⁻¹
kon [1]: 398000 M⁻¹ s⁻¹
IC50 (ng/ml), inhibition of IL-4-induced TF-1 cell proliferation [2]: 156 ng/mL
B1: humanized anti-hIL-4R alpha monoclonal antibody 29-Hu (antibody, human IgG4 S228P, kappa, V domains shown)
VH: B2 VH with S49A, S52N, T57K, Y60H, I99F, S100P, K105A, A108P
VL: B2 VL with Y50F, F71Y, I83F, E90Q, V91G, M93T, F96Y, V104L
notes: as for B2

Kd [1]: 0.154 nM
koff [1]: 9.8e-05 s⁻¹
kon [1]: 635000 M⁻¹ s⁻¹
IC50 (ng/ml), inhibition of IL-4-induced TF-1 cell proliferation [2]: 84.3 ng/mL
B3: humanized anti-hIL-4R alpha monoclonal antibody 136-Hu (antibody, human IgG4 S228P, kappa, V domains shown)
VH: B2 VH with S56T
VL: B2 VL with E90Q, V91I, M93A, V104L
notes: as for B2

IC50 (ng/ml), inhibition of IL-4-induced TF-1 proliferation [3]: 43.7 ng/mL
EC50 [4]: 0.0117 µg/mL
B9: murine anti-hIL-4R alpha monoclonal antibody 59 (antibody, V domains shown)
VH: EVQLVESGGGLVKPGGSLKLSCAASGFTFSDYGIHWVRQAPDKGLEWVAYIRSDSSIIHYADTVKGRFTISRDNAKNTLFLQMTSLRSEDTAMYYCTRGRDRGYFDYWGQGTTLTVSS
VL: QIVLTQSPALMSASPGEKVTMTCSASSSVSYMYWYQQKPRSSPKPWIYLTSNLASGVPARFSGSGSGTSYSLTISSMEAEDAATYYCQQWTSIPFTFGSGTKLEIK
notes: as for B6
